From patent US20060009452A1, “Therapeutic targeting of PARC/CCL18 and its signaling in pulmonary fibrosis” (priority 2004, published 2006)
“Also recorded” adds a separate entry of the source.

What was measured:
[1] = system: lung fibroblasts; test: Collagen production, metabolic labeling with 14C-proline, PAGE and autoradiography; format: cell-based, human
Experimental: Collagen Production Assays. Production of collagen was assessed using metabolic labeling with ^14C-proline and Western blotting with anti-collagen type I antibody. For metabolic labeling of collagen, fibroblasts were plated at 2×10^5 cells/well in 6-well plates (Costar, Cambridge, Mass.), in duplicates, incubated overnight in 3 ml/well of high serum medium, and then for 24 h in low-serum medium. After that, the culture medium was replaced with 1 ml/well of fresh low serum medium with or without added test substances and containing ^14C-proline at 1 μCi/ml (Amersham Pharmacia Biotech). After incubation for the desired periods of time, the cell culture supernatants were collected, rapidly frozen in liquid nitrogen and freeze-dried at −70° C. The pellets were dissolved in 100 μl of reducing Laemmli buffer per 1 ml of the cell culture supernatant, and the samples were electrophoretically separated in 7.5% acrylamide gels. Alternatively, samples were concentrated 10-fold by filter centrifugation on 30K Ultrafree-MC filters (Millipore, Bedford, Mass.). Fluorographic images were developed using EN[3H]ANCE autoradiography enhancer (NEN, Boston, Mass.). Gel images were acquired using Storm densitometer (Molecular Dynamics, Sunnyvale, Calif.), and the densities of the bands were analyzed with ImageQuant software (Molecular Dynamics). Dependence of collagen production by fibroblast cultures on the dose of PARC and duration of stimulation were evaluated using one-way ANOVA with post hoc testing.
The identity of collagen bands was confirmed by sensitivity to pepsin and collagenase (both from Sigma) digestion. For pepsin digestion, 2 μl of 1 Macetic acid were added to 40 μl of concentrated fibroblast culture supernatant, followed by 1 μl of pepsin stock, to achieve final concentration of pepsin as indicated in the text. After 15 min of digestion at room temperature, reaction was stopped with 4 μl of 1 M Tris base and 40 μl of reducing Laemmli buffer. For collagenase digestion, 1 μl of 4 U/ml bacterial collagenase and 1 μl of protease inhibitor cocktail (Sigma) were added to 40 μl of sample and digestion performed at room temperature for 30 min. The bacterial collagenase was highly purified and had minimal clostripain and neutral protease activity, as tested by the manufacturer, according to the product information sheet.
To test effects of rhPARC on collagen protein production by lung and dermal fibroblast cell lines, fibroblast cultures were incubated for 48 h with or without 30 ng/ml and 300 ng/ml rhPARC in the low-serum cell culture medium containing 14Cproline for metabolic labeling of collagen. Fibroblast culture supernatants contained two 14C-proline containing bands in gel electrophoresis under reducing conditions (FIGS. 13A and 13B). Digestion with chromatographically pure bacterial collagenase in the presence of protease inhibitors eliminated the bands completely (FIG. 13A). To confirm the identity of these bands, we conducted Western blotting experiments in reducing conditions of fibroblast culture supernatants using an anti-collagen type I antibody, that recognizes α1(I) collagen but not other collagen chains. Digestion with pepsin caused expected decrease in the apparent molecular weight of the immunoreactive collagen from ˜175 kD to ˜125 kD (FIG. 13C).

[2] = system: lung and dermal fibroblast lines; test: CellTiter AQueous 96 fibroblast proliferation assay; format: cell-based, human; details: for maximum increase in fibroblast proliferation over non-stimulated control: Days 7 and 8, rhPARC 1-3,000 ng/ml
Experimental: Cell Proliferation Assays. For CellTiter AQueous 96 Non-Radioactive Cell Proliferation Assay (Promega, Madison, Wis.), fibroblasts were plated in low-serum medium at 2×10^3 cells/well in 96-well flat-bottom tissue culture plates (Costar) in 0.2-ml cultures and stimulated with increasing concentrations of rhPARC in quadruplicates. Low-serum tissue culture medium alone was the negative control. The Cell-Titer proliferation assay was performed according to the manufacturer's instructions, after the fibroblasts were incubated with test substances for 3-8 d. Data were expressed as mean OD490±SD of quadruplicate cultures and analyzed using one-way ANOVA with post hoc testing.

[3] = system: Smad3; test: Smad3 immunoprecipitation and phosphorylation Western blot; format: cell-based, human; details: fibroblasts activated with cytokine
Experimental: To determine if PARC stimulated phosphorylation of Sp1 and Smad3, these factors were immunoprecipitated from lysates of fibroblasts that had been activated with recombinant human PARC for up to 24 hours, and the levels of their phosphorylation were tested in Western blotting assays using anti-phosphoserine and anti-phospho-Smad2/3 antibodies. Equal loading was controlled by stripping the membranes and re-developing them with anti-Sp1, anti-Smad3 and anti-Smad2/3 antibodies (FIG. 17).
Preparation of fibroblast lysates, immunoprecipitation of Sp1 and Smad2/3, normalization of protein concentration in the samples with BioRad assays, electrophoretic separation, Western blotting, membrane stripping and re-development with different antibodies were performed as described in Atamas et al. (Am. J. Respir. Cell. Mol., 29:743-749 (2003); J. Immunol. 168: 1139-1145 (2002); and Arthritis Rheum., 42:1168-1178 (1999)), which are hereby incorporated by reference. Rabbit antibodies for total Smad2/3 and Sp1 were from Upstate (Waltham, Masss.). Antiphospho-Smad2/3 antibody and goat antibody for total Smad3 were from Santa Cruz Biotechnology (Santa Cruz, Calif.), as was anti-gp130 antibody used to confirm equal loading of the samples. Antiphosphoserine antibody was from Biomol (Plymouth Meeting, Pa.).

[4] = system: Sp1; test: EMSA of nuclear lysates with Sp1-specific probe; format: cell-based, human; details: consensus and collagen α2(I) promoter-specific probes
Experimental: NushifTM kits for EMSA and supershift assays and reagents for preparation of nuclear extracts were purchased from Active Motif (Carlsbad, Calif.); the procedures were performed according to manufacturer's recommendations, including end-labeling of the specific probes with [γ-^32P]ATP. In addition to the [γ-^32P]ATP-labeled Sp1 consensus probe ([NT] ID NO:5), wild-type and mutant ([NT] ID NO:6) oligo competitors, and an Sp1-specific antibody from the kit, an oligonucleotide representing the Sp1-binding region in the α2(I) collagen promoter ([NT] ID NO:7) was used as a probe (after end-labeling with [γ-^32P]ATP) and as a cold competitor. […] Nuclear extracts were adjusted for total protein content to ensure equal loading. Gels were exposed to a Phosphorimager screen and scanned using a Storm Phosphorimager (Molecular Dynamics); band densities were analyzed with ImageQuant software.

[5] = system: mouse fibroblasts; test: Collagen Western blot in wild-type and Smad3-/- mouse fibroblasts; format: cell-based
Experimental: Collagen was quantified by Western blotting and the identity of collagen bands was confirmed by sensitivity to pepsin and collagenase digestion as described elsewhere in Atamas et al. (Am. J. Respir. Cell. Mol., 29:743-749 (2003)). In these assays, pro-collagen appears as a single or double band with a molecular weight of approximately 175 kDa (4,27,28).
Transient transfection with 1 μg of Sp1 and Smad3 dominant negative mutant constructs abrogated basal and PARC-stimulated upregulation of collagen production, whereas transfection with 0.2 μg of the constructs inhibited the response to PARC stimulation but not basal collagen production (FIG. 19A,B).

B1: rhPARC: Recombinant human pulmonary and activation-regulated chemokine (CC chemokine CCL18), purchased from R&D Systems and Cell Sciences (protein)
chain: AQVGTNKELCCLVYTSWQIPQKFIVDYSETSPQCPKPGVILLTKRGRQICADPNKKWVQKYISDLKLNA
[1]; 48 h, 300 ng/ml rhPARC, responding lung and dermal lines
  average increase in the density of collagen bands: 3.4±0.9 fold
[1]; 48 h, five out of seven tested lung and dermal fibroblast lines
  increase of fibroblast production of collagen over control: more than 3 fold
[1]; LF1 cells, 300 ng/ml rhPARC, 48 h
  combined density of procollagen bands, fold higher than non-stimulated control: 3.4 fold
[1]; LF2 cells, 30 ng/ml rhPARC, 48 h
  combined density of procollagen bands, fold higher than non-stimulated control: 2.7 fold
[1]; LF2 cells, 300 ng/ml rhPARC, 48 h
  combined density of procollagen bands, fold higher than non-stimulated control: 4.4 fold
[1]; up to 72 h, rhPARC up to 1,000 ng/ml
  response of collagen production in one lung and one dermal fibroblast line: non-responsive
[2]; dermal lines
  maximum increase in fibroblast proliferation over non-stimulated control: 45-50%
[2]; lung lines
  maximum increase in fibroblast proliferation over non-stimulated control: 20-25%
[2]; summary statement
  increase in fibroblast proliferation: 25-50%
[3]
  phosphorylation of immunoprecipitated Smad3: No changes in phosphorylation
[4]
  DNA binding by Sp1 (EMSA): three-fold increase; also recorded: activates transcription factor Sp1
[5]; Smad3-/- mouse fibroblasts
  collagen production response to PARC stimulation: did not
[5]; wild-type mouse fibroblasts
  collagen production response to PARC stimulation: responded to PARC stimulation by upregulating collagen production
